The assay concerns the target Purified human C1q, P02745;P02746;P02747. Description: FACS-based C1q binding assay. To be noted: for response: read off a plot.

The source of these data is article PMC9114490.

By EC50 is commonly meant the midpoint of the concentration-response curve. Read a high EC50 as a need for much substance. Regarding 4A8 Parental E345R; E430G, the EC50 was 26.1 nM. The response (parent: est. 65000) came to 750000 MFI.

With EY6A Parental E345R; E430G, the EC50 came out at 42.1 nM. In addition, for the setting “parent: est. 75000”, the response turned out to be 830000 MFI. As to REGN10933 Parental E345R; E430G, the EC50 came to 4 nM. Also, for the setting “parent: est. 42000”, the response was found to be 800000 MFI. Turning to REGN10987 Parental E345R; E430G, the EC50 was 10.5 nM. Besides, the response (parent: est. 85000) was 830000 MFI.

As to S230 parental IgG1 E345R; E430G, the response (parent: est. 30000) turned out to be 50000 MFI.

Turning to S309 parental IgG1 E345R; E430G, the EC50 turned out to be 10 nM. Besides, the response (parent: est. 42000) was 800000 MFI.
